Reference: patent US20140235820A1, “METHODS AND COMPOSITIONS FOR MODULATING THE Wnt PATHWAY” (Genentech, Inc., priority 2010, published 2014)

Experiments:
LRP6 E4 = molecular target: T1, LRP6 E4 (Homo sapiens, UniProt O75581); experiment: Biolayer interferometry binding to LRP6 E4
T1 construct: construct E4-T933-Q1253; made in house; host or cells: Tni insect cells (baculovirus, secreted)
T1 sequence (O75581 933-1253): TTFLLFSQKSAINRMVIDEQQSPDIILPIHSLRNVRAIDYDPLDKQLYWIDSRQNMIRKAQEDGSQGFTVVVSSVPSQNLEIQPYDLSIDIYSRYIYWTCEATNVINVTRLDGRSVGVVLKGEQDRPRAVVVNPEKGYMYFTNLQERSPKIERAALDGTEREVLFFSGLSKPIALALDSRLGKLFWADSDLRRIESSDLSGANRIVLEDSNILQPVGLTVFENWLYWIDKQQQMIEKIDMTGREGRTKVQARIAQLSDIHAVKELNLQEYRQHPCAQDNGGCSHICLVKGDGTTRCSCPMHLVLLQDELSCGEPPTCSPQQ
Description: (§1) Binding kinetics were measured by biolayer interferometry using an Octet Red instrument (ForteBio) as previously described (11). Streptavidin (SA) biosensors were loaded with biotinylated hLRP6 in 50 mMTris, pH 8, 300 mM NaCl, 5% (v/v) glycerol, and 0.05% (w/v) Triton X-100. The loaded biosensors were washed in the same buffer before carrying out association and dissociation measurements for the indicated times. The Kd of each interaction was determined using steady state-analysis through the Octet Red software v6.3. Each reported value represents an average of three or more experiments at different concentrations, with a fitted experimental curve for which the square of the correlation coefficient (R^2) is above 0.96.
The interaction of the different Dkks and sclerostin with various domains of LRP6 was measured using a biolayer interferometry assay (11). Purified receptors contained individual β-propeller-EGF-like units (E1, E2, or E4), two β-propellers (E1E2 or E3E4), or four β-propellers (E1E4))—as follows:
Human LRP6: construct E1E4-amino acids A20-Q1253 of LPR6; construct E1E2-amino acids A20-E631 of LPR6; construct E3E4 amino acids E631-Q1253 of LPR6; construct E1-amino acids A20-D325 of LPR6; construct E2-amino acids […]-E631 of LPR6; construct E4-T933-Q1253. The individual LRP6 β-propeller E3 could not be expressed.

[1] = molecular target: T2, human LRP6 construct E1E2 (amino acids A20-E631) (human, UniProt O75581 20-631, biotinylated for biolayer interferometry); experiment: BLI affinity
T2 construct: range 20-631; also called LRP6 E1E2
T2 sequence (looked up): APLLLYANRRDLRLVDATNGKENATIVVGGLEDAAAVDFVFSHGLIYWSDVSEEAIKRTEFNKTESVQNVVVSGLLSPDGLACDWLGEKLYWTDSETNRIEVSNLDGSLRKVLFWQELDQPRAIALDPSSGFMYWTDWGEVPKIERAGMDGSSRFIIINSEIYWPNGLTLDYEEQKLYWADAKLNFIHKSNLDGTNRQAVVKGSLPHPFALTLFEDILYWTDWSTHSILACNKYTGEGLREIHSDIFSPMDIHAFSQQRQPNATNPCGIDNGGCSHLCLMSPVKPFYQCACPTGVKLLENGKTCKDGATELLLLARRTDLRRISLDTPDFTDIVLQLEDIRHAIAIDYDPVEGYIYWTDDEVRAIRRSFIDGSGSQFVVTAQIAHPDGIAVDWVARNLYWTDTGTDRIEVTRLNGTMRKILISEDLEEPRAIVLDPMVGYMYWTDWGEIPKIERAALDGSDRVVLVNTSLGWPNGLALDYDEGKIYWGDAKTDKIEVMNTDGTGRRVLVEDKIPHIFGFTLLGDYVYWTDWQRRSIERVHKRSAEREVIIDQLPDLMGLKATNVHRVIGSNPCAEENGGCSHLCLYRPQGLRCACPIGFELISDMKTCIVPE
Description: as §1, with “(R²)” for “(R^2)”

| Molecule | binding to LRP6 E4 (in words) (LRP6 E4) | fold loss in affinity against wild-type Dkk1 [1] [fold] |
| --- | --- | --- |
| Dkk1: Dickkopf 1 protein, Wnt pathway inhibitor, expressed in insect cells (NSNAIKN) | undetectable | – |
| Dkk1 Ile42Glu (ligand, human, UniProt O94907 32-266, looked up, also called Dkk1 I42E) TLNSVLNSNAEKNLPPPLGGAAGHPGSAVSAAPGILYPGGNKYQTIDNYQPYPCAEDEECGTDEYCASPTRGGDAGVQICLACRKRRKRCMRHAMCCPGNYCKNGICVSSDQNHFRGEIEETITESFGNDHSTLDGYSRRTTLSSKMYHTKGQEGSVCLRSSDCASGLCCARHFWSKICKPVLKEGQVCTKHRRKGSHGLEIFQRCYCGEGLSCRIQKDHHQASNSSRLHTCQRH | – | > 364 |
